Key:
重组人TNF-α [1] = target: T1, 重组人TNF-α (human, UniProt P01375 77-233); assay: cell-based or functional assay
重组人TNF-α [2] = target: T1, 重组人TNF-α; assay: competition ELISA: inhibition of binding of 1 μg/ml TNF-α to coated L929 TNF receptor extract

T1 sequence (P01375 77-233 limits assumed): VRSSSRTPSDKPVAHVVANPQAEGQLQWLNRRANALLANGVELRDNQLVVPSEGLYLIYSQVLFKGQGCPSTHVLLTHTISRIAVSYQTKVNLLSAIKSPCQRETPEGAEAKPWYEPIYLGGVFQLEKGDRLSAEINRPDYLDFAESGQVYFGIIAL

Binder | MTT法: 抑制TNF-α对L929细胞的细胞毒作用, 50%抑制的浓度(IC50) (重组人TNF-α [1]) [nM] | IC50 (重组人TNF-α [2]) [nM] | MTT法: 抑制TNF-α对L929细胞的细胞毒作用, 50%的抑制浓度(IC50) (重组人TNF-α [1]) [nM]
抗TNF-α鼠源单链抗体 TNF-scFv (scFv, part only; not given: C-terminal tail of construct, part only) scFv, part: QIQLVQSGPELKKPGETVKISCKASGYTFTHYGMNWVKQAPGKGLKWMGWINTYTGEPTYADDFKEHFAFSLETSASTVFLQINNLKNEDTATYFCARERGDAMDYWGQGTSVTVSSTSGGGGSGGGGSGGGGSSRSIVMTQTPKFLLVSAGDRVTITCTASQSVSNDVVWYQQKPGQSPKMLMYSAFNRYTGVPDRFTGRGYGTDFTFTISSVQAEDLAVYFCQQDYNSPRTFGGGTKLEIK | 40 | 3200 | –
抗TNF-α基因工程四价单链抗体 TNF-TeAb (scFv) QIQLVQSGPELKKPGETVKISCKASGYTFTHYGMNWVKQAPGKGLKWMGWINTYTGEPTYADDFKEHFAFSLETSASTVFLQINNLKNEDTATYFCARERGDAMDYWGQGTSVTVSSTSGGGGSGGGGSGGGGSSRSIVMTQTPKFLLVSAGDRVTITCTASQSVSNDVVWYQQKPGQSPKMLMYSAFNRYTGVPDRFTGRGYGTDFTFTISSVQAEDLAVYFCQQDYNSPRTFGGGTKLEIK | – | ~400 | 2.5

Source: CN1948343A (BEIJING ANBOTE GENE ENGINEERIN, dated 2007)
